# Data: US20130143299A1
# B1: Erk2-binding clone group J (RNF8-FHA domain-modified protein) (designed binder, not shown: large carriers)
# chain: GEPGFFVTGDRAGGRSWCLRRVGMSAGWLLLEDGCEVTVGFGTGVTYQLVSKYLPSWFTYNHCVLKQNPEGQWTIMDNKSLTGVWLNRARLEPLRVYSIHQGDYIQLGSLREXSENAEYEYEVTEEDWETIYPCLSPKNDQMIEKN
# modifications: not fully specified; X: residue not identified in the source; also: N-terminal MBP-Strep/FLAG fusion partner, sequence not given here
# Molecular target: human Erk2 (extracellular signal-regulated kinase 2), purchased from Sigma (human), P28482
# Test: ELISA, purified clone 500 ng/well on immobilised antigen, anti-FLAG-HRP detection
# Sequence of human Erk2 (extracellular signal-regulated kinase 2), purchased from Sigma (human), P28482 (P28482 whole entry): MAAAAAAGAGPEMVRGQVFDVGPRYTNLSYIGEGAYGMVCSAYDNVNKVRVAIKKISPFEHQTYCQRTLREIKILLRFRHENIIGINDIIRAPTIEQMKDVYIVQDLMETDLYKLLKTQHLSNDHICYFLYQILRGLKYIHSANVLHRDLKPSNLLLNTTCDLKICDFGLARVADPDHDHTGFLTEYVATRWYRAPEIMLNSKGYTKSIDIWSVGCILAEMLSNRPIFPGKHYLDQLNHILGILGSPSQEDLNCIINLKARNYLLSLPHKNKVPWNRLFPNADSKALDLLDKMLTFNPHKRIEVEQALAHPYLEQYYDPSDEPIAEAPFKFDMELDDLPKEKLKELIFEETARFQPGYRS
binder,measurement,value
B1,ELISA (S/N),25.6 S/N
